For test [1], the target named is mouse Slitrk2 LRR1 (first leucine-rich repeat of Slit and Trk-like family member 2), wild type (UniProt Q810C0). The test can be described thus: SPR equilibrium analysis. The following applies: point at 4 µM PTPδ Ig1-Fn1 (highest concentration); Slitrk2 LRR1 immobilized on a CM5 sensor tip; parent: est. 600; read off a plot.
Test [2] concerns the target T1, mouse Slitrk2 LRR1 (first leucine-rich repeat of Slit and Trk-like family member 2), wild type (mouse, UniProt Q810C0 1-266, N-linked glycans).
T1 chain: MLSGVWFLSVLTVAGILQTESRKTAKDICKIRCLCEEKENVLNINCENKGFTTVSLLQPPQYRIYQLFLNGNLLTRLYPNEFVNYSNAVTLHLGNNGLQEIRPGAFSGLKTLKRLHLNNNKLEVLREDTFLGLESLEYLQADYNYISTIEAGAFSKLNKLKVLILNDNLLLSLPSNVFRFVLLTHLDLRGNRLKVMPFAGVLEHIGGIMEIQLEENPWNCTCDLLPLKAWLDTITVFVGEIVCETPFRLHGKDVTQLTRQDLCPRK
The test can be described thus: SPR. On the technique in general: SPR reads the build-up and loss of mass on a sensor chip optically.

For test [3], the target named is T2, mouse Slitrk2 LRR1 (first leucine-rich repeat of Slit and Trk-like family member 2), wild type, Q810C0.
T2 chain: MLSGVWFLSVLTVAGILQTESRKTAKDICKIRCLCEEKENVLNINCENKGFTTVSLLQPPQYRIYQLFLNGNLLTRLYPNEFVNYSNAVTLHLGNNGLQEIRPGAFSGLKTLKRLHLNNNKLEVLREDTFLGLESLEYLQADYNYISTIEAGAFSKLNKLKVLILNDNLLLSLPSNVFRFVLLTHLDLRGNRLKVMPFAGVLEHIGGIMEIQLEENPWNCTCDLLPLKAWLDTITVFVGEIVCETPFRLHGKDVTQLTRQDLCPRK
Description: SPR equilibrium analysis. The following applies: chain shown with the change, Slitrk2 LRR1 immobilized on a CM5 sensor tip.

In the next test the target is T3, mouse Slitrk2 LRR1 R114A (mouse, UniProt Q810C0 1-266, R114A).
T3 sequence: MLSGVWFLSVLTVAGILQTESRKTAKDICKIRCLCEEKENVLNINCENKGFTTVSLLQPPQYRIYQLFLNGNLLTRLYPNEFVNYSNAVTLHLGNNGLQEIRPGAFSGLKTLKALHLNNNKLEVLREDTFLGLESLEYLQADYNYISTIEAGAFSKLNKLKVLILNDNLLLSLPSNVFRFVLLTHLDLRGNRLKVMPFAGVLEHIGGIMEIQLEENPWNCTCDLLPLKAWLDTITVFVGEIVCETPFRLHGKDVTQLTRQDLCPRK
Description: SPR.

For test [4], the target named is T4, mouse Slitrk2 LRR1 F247A H250A (mouse, UniProt Q810C0 1-266, F247A | H250A).
T4 sequence: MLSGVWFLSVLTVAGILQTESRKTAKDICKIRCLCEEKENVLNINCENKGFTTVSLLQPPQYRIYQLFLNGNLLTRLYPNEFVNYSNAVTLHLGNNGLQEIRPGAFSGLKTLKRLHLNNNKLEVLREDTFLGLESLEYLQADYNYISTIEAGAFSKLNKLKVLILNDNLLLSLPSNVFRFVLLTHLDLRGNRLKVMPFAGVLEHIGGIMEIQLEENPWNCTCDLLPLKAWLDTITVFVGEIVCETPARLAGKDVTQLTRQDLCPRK
The test can be described thus: SPR.

In test [5] the target is mouse Slitrk2 LRR1 (first leucine-rich repeat of Slit and Trk-like family member 2), wild type (mouse) (UniProt Q810C0). The test can be described thus: crystal structure; Slitrk2 LRR1 and PTPδ Ig1-Fn1 mixed at a molar ratio of 1:1, treated with neuraminidase; sitting drop vapor diffusion, 293 K, 15% PEG4000, 0.1 M sodium acetate, 0.1 M MES (pH 6.0); 3.35 Å.

By Kd is commonly meant the free concentration of one partner at which half of the binding sites on the other are occupied at equilibrium, for simple one-to-one binding. As usually defined, the stoichiometry N is a count of units in the complex or per binding partner.

For “mouse PTPδ Ig1-Fn1 (residues 28-418), splice variant meA9B+ (from UniProt Q64487) R236E”, the response (Response unit) in test [1] is 97.

B1: mouse PTPδ Ig1-Fn1, splice variant meA-B+ (domain or fragment)
chain: ETPPRFTRTPVDQTGVSGGVASFICQATGDPRPKIVWNKKGKKVSNQRFEVIEFDDGSGSVLRIQPLRTPRDEAIYECVASNNVGEISVSTRLTVLREDQIPRGFPTIDMGPQLKVVERTRTATMLCAASGNPDPEITWFKDFLPVDTSNNNGRIKQLRSGALQIEQSEESDQGKYECVATNSAGTRYSAPANLYVRELREVRRVPPRFSIPPTNHEIMPGGSVNITCVAVGSPMPYVKWMLGAEDLTPEDDMPIGRNVLELNDVRQSANYTCVAMSTLGVIEAIAQITVKALPKPPGTPVVTESTATSITLTWDSGNPEPVSYYIIQHKPKNSEEPYKEIDGIATTRYSVAGLSPYSDYEFRVVAVNNIGRGPASEPVLTQ
As to B1, the Kd in test [2] stood at 451 nM.

B2: mouse PTPδ Ig1-Fn1 (residues 28-418), splice variant meA9B+, Q64487 Y273A (protein)
chain: ETPPRFTRTPVDQTGVSGGVASFICQATGDPRPKIVWNKKGKKVSNQRFEVIEFDDGSGSVLRIQPLRTPRDEAIYECVASNNVGEISVSTRLTVLREDQIPRGFPTIDMGPQLKVVERTRTATMLCAASGNPDPEITWFKDFLPVDTSNNNGRIKQLRSESIGGTPIRGALQIEQSEESDQGKYECVATNSAGTRYSAPANLYVRELREVRRVPPRFSIPPTNHEIMPGGSVNITCVAVGSPMPAVKWMLGAEDLTPEDDMPIGRNVLELNDVRQSANYTCVAMSTLGVIEAIAQITVKALPKPPGTPVVTESTATSITLTWDSGNPEPVSYYIIQHKPKNSEEPYKEIDGIATTRYSVAGLSPYSDYEFRVVAVNNIGRGPASEPVLTQ
As for B2, in test [3] (PTPδ Ig1-Fn1 injected, parent: 355.5 ± 6.5 nM), the Kd amounted to 312 nM. Moreover, the response (Response unit) in test [3] (point at 4 µM PTPδ Ig1-Fn1 (highest concentration), parent: est. 600, read off a …) amounted to 500.

B3: mouse PTPδ Ig1-Fn1 (residues 28-418), splice variant meA9B+ (domain or fragment)
chain: ETPPRFTRTPVDQTGVSGGVASFICQATGDPRPKIVWNKKGKKVSNQRFEVIEFDDGSGSVLRIQPLRTPRDEAIYECVASNNVGEISVSTRLTVLREDQIPRGFPTIDMGPQLKVVERTRTATMLCAASGNPDPEITWFKDFLPVDTSNNNGRIKQLRSESIGGTPIRGALQIEQSEESDQGKYECVATNSAGTRYSAPANLYVRELREVRRVPPRFSIPPTNHEIMPGGSVNITCVAVGSPMPYVKWMLGAEDLTPEDDMPIGRNVLELNDVRQSANYTCVAMSTLGVIEAIAQITVKALPKPPGTPVVTESTATSITLTWDSGNPEPVSYYIIQHKPKNSEEPYKEIDGIATTRYSVAGLSPYSDYEFRVVAVNNIGRGPASEPVLTQ
modifications: N-linked glycans
In the case of B3, the Kd in test [2] was 356 nM; in the test with mouse Slitrk2 LRR1 R114A, 257 nM; in test [4], 580 nM. Moreover, in test [5], the stoichiometry N turned out to be 1.

The record behind these values is PMC4437028 (2015).
